We go through one substance from publication PMC6039025.

One may read the Kd as the constant that tells how readily two partners part at equilibrium. Low values mean higher affinity, high ones lower affinity.

Holding throughout (assay): fluorescence anisotropy
Holding throughout (details): Hill slope fit; 10 nM 6-FAM ssDNA, 0.001-6 uM protein, 20 min at 30 C, read at room temperature; binding buffer not stated (protein storage FP buffer: 200 mM NaCl, 50 mM …)
For orientation: In fluorescence polarisation assays a small probe gives low polarisation when free and higher when bound to something large.

The test system of data set [1] is condensin holocomplex, Smc4-L1333V-L1335A (Saccharomyces cerevisiae (overexpressed in strain D1074)).
In data set [2] the test system is condensin holocomplex, Smc4-L1335A (Saccharomyces cerevisiae (overexpressed in strain D1074)).
Data set [3] relates to condensin holocomplex, wild-type Smc4 (Saccharomyces cerevisiae (overexpressed in strain D1074)).
The subject of data set [4] is condensin holocomplex, Smc4-A1376S-Q1377A (Saccharomyces cerevisiae (overexpressed in strain D1074)).
Data set [5] has as its system condensin holocomplex, Smc4-K191M (Saccharomyces cerevisiae (overexpressed in strain D1074)).
Data set [6] has as its system condensin holocomplex, Smc4-Q1377A (Saccharomyces cerevisiae (overexpressed in strain D1074)).
Data set [7] has as its system condensin holocomplex, Smc4-L1333I-L1335A (Saccharomyces cerevisiae (overexpressed in strain D1074)).

With 6-FAM 60-nt ssDNA, the dissociation constant Kd in data set [1] worked out at 148 nM; in data set [2] it was 193 nM; in data set [3] it was 252 nM; in data set [4], 171 nM; in data set [5], 76.7 nM; in data set [6], 216 nM. The equilibrium dissociation constant (Kd) in data set [7] worked out at 92.8 nM.
